Experimental data taken from PMC3710971 (Molecular Cell, 2013).

How the values were obtained:
[1] = target: HDAC1 (full-length, untagged) (UniProt Q13547 1-482); assay: crystal structure
crystal structure = target: the molecule itself; assay: crystal structure

Sequence of HDAC1 (full-length, untagged) (Q13547 whole entry): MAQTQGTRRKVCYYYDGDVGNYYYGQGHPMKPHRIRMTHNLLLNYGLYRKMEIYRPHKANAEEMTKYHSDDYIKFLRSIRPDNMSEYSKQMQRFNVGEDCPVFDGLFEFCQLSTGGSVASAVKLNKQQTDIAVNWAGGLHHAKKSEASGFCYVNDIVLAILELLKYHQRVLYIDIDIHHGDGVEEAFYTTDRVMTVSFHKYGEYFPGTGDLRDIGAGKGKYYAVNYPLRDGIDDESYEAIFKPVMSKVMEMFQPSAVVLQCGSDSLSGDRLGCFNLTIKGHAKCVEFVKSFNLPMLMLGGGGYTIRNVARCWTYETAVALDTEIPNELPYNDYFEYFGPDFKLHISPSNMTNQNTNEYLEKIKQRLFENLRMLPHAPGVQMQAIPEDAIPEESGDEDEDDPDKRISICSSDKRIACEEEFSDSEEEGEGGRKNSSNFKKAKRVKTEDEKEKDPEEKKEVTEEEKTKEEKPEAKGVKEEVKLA

B1: ELM2-SANT domain of MTA1 (residues 162-335) (domain or fragment, UniProt Q13330 162-335, looked up)
chain: ADKGEIRVGNRYQADITDLLKEGEEDGRDQSRLETQVWEAHNPLTDKQIDQFLVVARSVGTFARALDCSSSVRQPSLHMSAAAASRDITLFHAMDTLHKNIYDISKAISALVPQGGPVLCRDEMEEWSASEANLFEEALEKYGKDFTDIQQDFLPWKSLTSIIEYYYMWKTTDR
B1: binds [1]; binds (crystal structure).
